This note sets out measurements from US20100202967A1 (BRACCO IMAGING, published 2010).

The labels stand for the following.
T1: fibrin
T1 chain 1: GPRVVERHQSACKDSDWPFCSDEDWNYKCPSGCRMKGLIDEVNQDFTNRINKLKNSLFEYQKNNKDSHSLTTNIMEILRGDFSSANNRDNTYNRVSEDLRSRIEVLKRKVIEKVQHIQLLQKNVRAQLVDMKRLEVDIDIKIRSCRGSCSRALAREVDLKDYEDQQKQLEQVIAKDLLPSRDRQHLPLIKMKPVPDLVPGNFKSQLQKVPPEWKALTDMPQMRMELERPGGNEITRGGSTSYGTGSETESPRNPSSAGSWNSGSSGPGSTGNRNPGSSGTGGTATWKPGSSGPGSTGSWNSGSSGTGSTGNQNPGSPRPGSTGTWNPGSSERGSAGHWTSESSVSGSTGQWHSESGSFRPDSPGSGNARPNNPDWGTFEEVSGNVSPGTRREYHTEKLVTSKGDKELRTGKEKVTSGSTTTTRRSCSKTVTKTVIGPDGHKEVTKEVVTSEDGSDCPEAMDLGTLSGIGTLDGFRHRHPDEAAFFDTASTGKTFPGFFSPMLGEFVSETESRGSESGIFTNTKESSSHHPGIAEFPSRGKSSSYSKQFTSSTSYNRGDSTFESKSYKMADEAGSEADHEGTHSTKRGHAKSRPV
T1 chain 2: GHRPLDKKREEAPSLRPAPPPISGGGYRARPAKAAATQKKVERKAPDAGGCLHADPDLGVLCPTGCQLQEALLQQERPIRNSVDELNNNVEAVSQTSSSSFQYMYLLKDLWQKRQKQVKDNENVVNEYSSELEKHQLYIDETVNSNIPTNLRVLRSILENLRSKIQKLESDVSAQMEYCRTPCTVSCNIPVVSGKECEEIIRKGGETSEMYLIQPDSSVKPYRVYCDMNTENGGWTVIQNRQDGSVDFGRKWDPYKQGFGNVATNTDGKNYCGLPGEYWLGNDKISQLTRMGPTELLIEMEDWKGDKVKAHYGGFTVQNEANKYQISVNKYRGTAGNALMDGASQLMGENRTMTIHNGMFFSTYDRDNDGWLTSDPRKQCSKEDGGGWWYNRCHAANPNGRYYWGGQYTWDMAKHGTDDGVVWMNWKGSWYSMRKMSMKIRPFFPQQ
T1 chain 3: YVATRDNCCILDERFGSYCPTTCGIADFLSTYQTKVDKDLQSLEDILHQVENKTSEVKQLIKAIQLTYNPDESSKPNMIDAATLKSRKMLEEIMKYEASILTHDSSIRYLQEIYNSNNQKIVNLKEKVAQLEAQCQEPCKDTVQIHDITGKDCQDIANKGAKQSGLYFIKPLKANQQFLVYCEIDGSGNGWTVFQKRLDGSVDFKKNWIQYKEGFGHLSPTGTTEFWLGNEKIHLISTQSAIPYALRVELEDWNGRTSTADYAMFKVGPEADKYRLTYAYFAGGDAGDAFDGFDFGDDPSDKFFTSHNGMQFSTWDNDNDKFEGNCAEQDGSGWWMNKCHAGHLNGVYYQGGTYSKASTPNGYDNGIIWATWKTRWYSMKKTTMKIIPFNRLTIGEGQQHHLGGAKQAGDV

B1: Ac-RWQPC*PAESWTFC*WDPGGGK(CF5)-NH2 (peptide)
peptide: RWQPCPAESWTFCWDPGGGK(CF5)-NH2
modifications: disulfide 5-13; not fully specified (N-terminus); printed as RWQPC*PAESWTFC*WDPGGGK(CF5)-NH2
B2: Ac-RRGGWQPC*-Hypt4-WESWTFC*WDPGGGK-NH2 (peptide)
peptide: Ac-RRGGWQPC[Hyp]WESWTFCWDPGGGK-NH2
modifications: disulfide 8-16
SMILES: CC(=O)N[C@@H](CCCNC(=N)N)C(=O)N[C@@H](CCCNC(=N)N)C(=O)NCC(=O)NCC(=O)N[C@@H](Cc1c[nH]c2ccccc12)C(=O)N[C@@H](CCC(N)=O)C(=O)N1CCC[C@H]1C(=O)N[C@H]1CSSC[C@@H](C(=O)N[C@@H](Cc2c[nH]c3ccccc23)C(=O)N[C@@H](CC(=O)O)C(=O)N2CCC[C@H]2C(=O)NCC(=O)NCC(=O)NCC(=O)N[C@@H](CCCCN)C(N)=O)NC(=O)[C@H](Cc2ccccc2)NC(=O)[C@H]([C@@H](C)O)NC(=O)[C@H](Cc2c[nH]c3ccccc23)NC(=O)[C@H](CO)NC(=O)[C@H](CCC(=O)O)NC(=O)[C@H](Cc2c[nH]c3ccccc23)NC(=O)[C@@H]2C[C@@H](O)CN2C1=O

Bridge positions count the residues as written; N and C are the ends. Square brackets hold non-standard residues; d marks the D form. Ends that are not written are not given here. Phe(3,4-F2) = N[C@@H](Cc1ccc(F)c(F)c1)C(=O)O; Thf2ca = tetrahydrofuran-2-carboxylic acid; Phe(4-F) = N[C@@H](Cc1ccc(F)cc1)C(=O)O; Hyp = O=C(O)[C@@H]1C[C@@H](O)CN1; Cha = N[C@@H](CC1CCCCC1)C(=O)O; CF5 = 5-carboxyfluorescein

The target of the first assay is fibrin. As to the kind of experiment: fluorescence polarization, direct binding (n = 2). For orientation: Fluorescence polarisation rises when a labelled molecule tumbles more slowly, as on binding a larger partner.
Regarding H-RWQPCPAESWTFCWDPGGGK(CF5)-NH2 (disulfide 5-13) [RWQPC*PAESWTFC*WDPGGGK(CF5)-NH2], the dissociation constant (Kd) – broadly, the concentration at which binding is half-saturated – was 60 nM. Same read-out and setting: the result for Ac-RGWQPCPAESWT[Cha]CWDPGGGK(CF5)-NH2 (disulfide 6-14) [Ac-RGWQPC*PAESWT-Cha-C*WDPGGGK(CF5)-NH2] reads 100 nM; that for H-GWQPCPAESWTFCWDPGGGK(CF5)-NH2 (disulfide 5-13) [GWQPC*PAESWTFC*WDPGGGK(CF5)-NH2], 240 nM; that for B1, 210 nM.

In turn, Ac-GWQPCPAESWTFCWDPGGGK(CF5)-NH2 (disulfide 5-13) [Ac-GWQPC*PAESWTFC*WDPGGGK(CF5)-NH2] registered an equilibrium dissociation constant (Kd) of 240 nM. This Kd and that of the molecule before are within 1.5-fold of each other.

On to Thf2ca-WQPCPWESWTFCWDPGGGK(CF5)-NH2 (disulfide 4-12) [Thf2ca-WQPC*PWESWTFC*WDPGGGK(CF5)-NH2], for which the dissociation constant Kd is 1210 nM. Same read-out and setting: the value for Ac-WQPCPWESWT[Phe(3,4-F2)]CWDPGGGK(CF5)-NH2 (disulfide 4-12) [Ac-WQPC*PWESWT-F34fe-C*WDPGGGK(CF5)-NH2] was 700 nM; that for H-RGWQPCPAESWT[Cha]CWDPGGGK(CF5)-NH2 (disulfide 6-14) [RGWQPC*PAESWT-Cha-C*WDPGGGK(CF5)-NH2] was 50 nM; that for Ac-RWQPCPWESWTFCWDPGGGK(CF5)-NH2 (disulfide 5-13) [Ac-RWQPC*PWESWTFC*WDPGGGK(CF5)-NH2] was 110 nM. In turn, H-RWQPCPWESWTFCWDPGGGK(CF5)-NH2 (disulfide 5-13) [RWQPC*PWESWTFC*WDPGGGK(CF5)-NH2] registered a dissociation constant (Kd) of 110 nM. In the case of Ac-WQPCPWESWT[Cha]CWDPGGGK(CF5)-NH2 (disulfide 4-12) [Ac-WQPC*PWESWT-Cha-C*WDPGGGK(CF5)-NH2], the Kd came to 200 nM.

In turn, Ac-WQPCPWESWTFCWDPGGGK(CF5)-NH2 (disulfide 4-12) [Ac-WQPC*PWESWTFC*WDPGGGK(CF5)-NH2] returned a Kd of 390 nM. Same read-out and setting: the value for Ac-WQPCPWESWT[Phe(4-F)]CWDPGGGK(CF5)-NH2 (disulfide 4-12) [Ac-WQPC*PWESWT-Ffe4-C*WDPGGGK(CF5)-NH2] was 1020 nM.

A further assay addresses fibrin. Kind of assay: competition fluorescence polarization assay (n = 2).
With Thf2ca-WQPCPWESWTFCWDPGGGK-NH2 (disulfide 4-12) [Thf2ca-WQPC*PWESWTFC*WDPGGGK-NH2], the Rel IC50 (ratio to Ac-Seq000-GGGK-NH2) stood at 0.616. With Ac-WQPCPWESWT[Cha]CWDPGGGK-NH2 (disulfide 4-12) [Ac-WQPC*PWESWT-Cha-C*WDPGGGK-NH2], the Rel IC50 (ratio to Ac-Seq000-GGGK-NH2) is 0.494. Same read-out and setting: the result for Ac-GWQPCPWESWTFCWDPGGGK-NH2 (disulfide 5-13) [Ac-GWQPC*PWESWTFC*WDPGGGK-NH2] reads 1.04; that for Ac-WQPCPWESWT[Phe(4-F)]CWDPGGGK-NH2 (disulfide 4-12) [Ac-WQPC*PWESWT-Ffe4-C*WDPGGGK-NH2], 0.601. Same read-out and setting: the result for H-GWQPCPWESWTFCWDPGGGK-NH2 (disulfide 5-13) [GWQPC*PWESWTFC*WDPGGGK-NH2] reads 0.622. Still for that read-out and setting: the result for Ac-WQPCPWESWT[Phe(3,4-F2)]CWDPGGGK-NH2 (disulfide 4-12) [Ac-WQPC*PWESWT-F34fe-C*WDPGGGK-NH2] reads 0.428.

The next assay addresses fibrin. As to the kind of experiment: competition fluorescence polarization assay; reference of Table 6.
Consider WQPCPWESWTFCWDPGGGK (N-terminal acetyl; disulfide Cys4-Cys12 (C*); C-terminal amide) [Ac-WQPC*PWESWTFC*WDPGGGK-NH2], for which the Rel IC50 (ratio (reference peptide itself)) turned out to be 1.

A further assay has as its target T1, fibrin. Kind of assay: competition fluorescence polarization assay (n = 2).
On to B2, for which the “Rel IC50” value is 0.75 ratio to Ac-Seq000-GGGK-NH2.
